Assay results from PMC10540216, “Activity Guided Azide-methyllysine Photo-trapping for Substrate Profiling of Lysine Demethylases” (Journal of the American Chemical Society, 2023).

Tested on: KDM4A-I71AzF
Assay: CASI: photo-crosslinking with HEK293T cell extracts, StrepTactin enrichment and LC-MS/MS proteomics;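 further: lysates from HEK293T cells pretreated with a KDM4 inhibitor to raise proteome methylation, affinity-purified after ±UV, gel-resolved, trypsin-digested, with exclusive unique peptides per protein averaged per condition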
Type: binding, human
Conditions: sheet "Final results but with 0.01"

B1: TBB5_HUMAN (protein, UniProt P07437 1-444, looked up)
Tubulin beta chain: MREIVHIQAGQCGNQIGAKFWEVISDEHGIDPTGTYHGDSDLQLDRISVYYNEATGGKYVPRAILVDLEPGTMDSVRSGPFGQIFRPDNFVFGQSGAGNNWAKGHYTEGAELVDSVLDVVRKEAESCDCLQGFQLTHSLGGGTGSGMGTLLISKIREEYPDRIMNTFSVVPSPKVSDTVVEPYNATLSVHQLVENTDETYCIDNEALYDICFRTLKLTTPTYGDLNHLVSATMSGVTTCLRFPGQLNADLRKLAVNMVPFPRLHFFMPGFAPLTSRGSQQYRALTVPELTQQVFDAKNMMAACDPRHGRYLTVAAVFRGRMSMKEVDEQMLNVQNKNSSYFVEWIPNNVKTAVCDIPPRGLKMAVTFIGNSTAIQELFKRISEQFTAMFRRKAFLHWYTGEGMDEMEFTEAESNMNDLVSEYQQYQDATAEEEEDFGEEAEEEA
Fold change (+UV/-UV): 0.75

B2: ACINU_HUMAN (protein, UniProt Q9UKV3 1-1341, looked up)
Apoptotic chromatin …: MWRRKHPRTSGGTRGVLSGNRGVEYGSGRGHLGTFEGRWRKLPKMPEAVGTDPSTSRKMAELEEVTLDGKPLQALRVTDLKAALEQRGLAKSGQKSALVKRLKGALMLENLQKHSTPHAAFQPNSQIGEEMSQNSFIKQYLEKQQELLRQRLEREAREAAELEEASAESEDEMIHPEGVASLLPPDFQSSLERPELELSRHSPRKSSSISEEKGDSDDEKPRKGERRSSRVRQARAAKLSEGSQPAEEEEDQETPSRNLRVRADRNLKTEEEEEEEEEEEEDDEEEEGDDEGQKSREAPILKEFKEEGEEIPRVKPEEMMDERPKTRSQEQEVLERGGRFTRSQEEARKSHLARQQQEKEMKTTSPLEEEEREIKSSQGLKEKSKSPSPPRLTEDRKKASLVALPEQTASEEETPPPLLTKEASSPPPHPQLHSEEEIEPMEGPAPAVLIQLSPPNTDADTRELLVSQHTVQLVGGLSPLSSPSDTKAESPAEKVPEESVLPLVQKSTLADYSAQKDLEPESDRSAQPLPLKIEELALAKGITEECLKQPSLEQKEGRRASHTLLPSHRLKQSADSSSSRSSSSSSSSSRSRSRSPDSSGSRSHSPLRSKQRDVAQARTHANPRGRPKMGSRSTSESRSRSRSRSRSASSNSRKSLSPGVSRDSSTSYTETKDPSSGQEVATPPVPQLQVCEPKERTSTSSSSVQARRLSQPESAEKHVTQRLQPERGSPKKCEAEEAEPPAATQPQTSETQTSHLPESERIHHTVEEKEEVTMDTSENRPENDVPEPPMPIADQVSNDDRPEGSVEDEEKKESSLPKSFKRKISVVSATKGVPAGNSDTEGGQPGRKRRWGASTATTQKKPSISITTESLKSLIPDIKPLAGQEAVVDLHADDSRISEDETERNGDDGTHDKGLKICRTVTQVVPAEGQENGQREEEEEEKEPEAEPPVPPQVSVEVALPPPAEHEVKKVTLGDTLTRRSISQQKSGVSITIDDPVRTAQVPSPPRGKISNIVHISNLVRPFTLGQLKELLGRTGTLVEEAFWIDKIKSHCFVTYSTVEEAVATRTALHGVKWPQSNPKFLCADYAEQDELDYHRGLLVDRPSETKTEEQGIPRPLHPPPPPPVQPPQHPRAEQREQERAVREQWAEREREMERRERTRSEREWDRDKVREGPRSRSRSRDRRRKERAKSKEKKSEKKEKAQEEPPAKLLDDLFRKTKAAPCIYWLPLTDSQIVQKEAERAERAKEREKRRKEQEEEEQKEREKEAERERNRQLEREKRREHSRERDRERERERERDRGDRDRDRERDRERGRERDRRDTKRHSRSRSRSTPVRDRGGRR
Fold change (+UV/-UV): 2

B3: KT33A_HUMAN (protein, UniProt O76009 1-404, looked up)
Keratin, type I cuticular …: MSYSCGLPSLSCRTSCSSRPCVPPSCHGCTLPGACNIPANVSNCNWFCEGSFNGSEKETMQFLNDRLASYLEKVRQLERDNAELENLIRERSQQQEPLVCASYQSYFKTIEELQQKILCSKSENARLVVQIDNAKLASDDFRTKYETELSLRQLVESDINGLRRILDELTLCRSDLEAQVESLKEELLCLKQNHEQEVNTLRCQLGDRLNVEVDAAPTVDLNQVLNETRSQYEALVETNRREVEQWFATQTEELNKQVVSSSEQLQSYQAEIIELRRTVNALEIELQAQHNLRDSLENTLTESEARYSSQLSQVQRLITNVESQLAEIRSDLERQNQEYQVLLDVRARLECEINTYRSLLESEDCKLPSNPCATTNACDKSTGPCISNPCGLRARCGPCNTFGY
Fold change (+UV/-UV): 300

B4: LMNA_HUMAN (protein, UniProt P02545 1-661, looked up)
Prelamin-A/C: METPSQRRATRSGAQASSTPLSPTRITRLQEKEDLQELNDRLAVYIDRVRSLETENAGLRLRITESEEVVSREVSGIKAAYEAELGDARKTLDSVAKERARLQLELSKVREEFKELKARNTKKEGDLIAAQARLKDLEALLNSKEAALSTALSEKRTLEGELHDLRGQVAKLEAALGEAKKQLQDEMLRRVDAENRLQTMKEELDFQKNIYSEELRETKRRHETRLVEIDNGKQREFESRLADALQELRAQHEDQVEQYKKELEKTYSAKLDNARQSAERNSNLVGAAHEELQQSRIRIDSLSAQLSQLQKQLAAKEAKLRDLEDSLARERDTSRRLLAEKEREMAEMRARMQQQLDEYQELLDIKLALDMEIHAYRKLLEGEEERLRLSPSPTSQRSRGRASSHSSQTQGGGSVTKKRKLESTESRSSFSQHARTSGRVAVEEVDEEGKFVRLRNKSNEDQSMGNWQIKRQNGDDPLLTYRFPPKFTLKAGQVVTIWAAGAGATHSPPTDLVWKAQNTWGCGNSLRTALINSTGEEVAMRKLVRSVTVVEDDEDEDGDDLLHHHHGSHCSSSGDPAEYNLRSRTVLCGTCGQPADKASASGSGAQVGGPISSGSSASSVTVTRSYRSVGGSGGGSFGDNLVTRSYLLGNSSPRTQSPQNC
Fold change (+UV/-UV): 1.25

B5: LMNB1_HUMAN (protein, UniProt P20700 2-583, looked up)
Lamin-B1: ATATPVPPRMGSRAGGPTTPLSPTRLSRLQEKEELRELNDRLAVYIDKVRSLETENSALQLQVTEREEVRGRELTGLKALYETELADARRALDDTARERAKLQIELGKCKAEHDQLLLNYAKKESDLNGAQIKLREYEAALNSKDAALATALGDKKSLEGDLEDLKDQIAQLEASLAAAKKQLADETLLKVDLENRCQSLTEDLEFRKSMYEEEINETRRKHETRLVEVDSGRQIEYEYKLAQALHEMREQHDAQVRLYKEELEQTYHAKLENARLSSEMNTSTVNSAREELMESRMRIESLSSQLSNLQKESRACLERIQELEDLLAKEKDNSRRMLTDKEREMAEIRDQMQQQLNDYEQLLDVKLALDMEISAYRKLLEGEEERLKLSPSPSSRVTVSRASSSRSVRTTRGKRKRVDVEESEASSSVSISHSASATGNVCIEEIDVDGKFIRLKNTSEQDQPMGGWEMIRKIGDTSVSYKYTSRYVLKAGQTVTIWAANAGVTASPPTDLIWKNQNSWGTGEDVKVILKNSQGEEVAQRSTVFKTTIPEEEEEEEEAAGVVVEEELFHQQGTPRASNRSC
Fold change (+UV/-UV): 0.7273

B6: HNRPQ_HUMAN (protein, UniProt O60506 2-623, looked up)
Heterogeneous nuclear …: ATEHVNGNGTEEPMDTTSAVIHSENFQTLLDAGLPQKVAEKLDEIYVAGLVAHSDLDERAIEALKEFNEDGALAVLQQFKDSDLSHVQNKSAFLCGVMKTYRQREKQGTKVADSSKGPDEAKIKALLERTGYTLDVTTGQRKYGGPPPDSVYSGQQPSVGTEIFVGKIPRDLFEDELVPLFEKAGPIWDLRLMMDPLTGLNRGYAFVTFCTKEAAQEAVKLYNNHEIRSGKHIGVCISVANNRLFVGSIPKSKTKEQILEEFSKVTEGLTDVILYHQPDDKKKNRGFCFLEYEDHKTAAQARRRLMSGKVKVWGNVGTVEWADPIEDPDPEVMAKVKVLFVRNLANTVTEEILEKAFSQFGKLERVKKLKDYAFIHFDERDGAVKAMEEMNGKDLEGENIEIVFAKPPDQKRKERKAQRQAAKNQMYDDYYYYGPPHMPPPTRGRGRGGRGGYGYPPDYYGYEDYYDYYGYDYHNYRGGYEDPYYGYEDFQVGARGRGGRGARGAAPSRGRGAAPPRGRAGYSQRGGPGSARGVRGARGGAQQQRGRGVRGARGGRGGNVGGKRKADGYNQPDSKRRQTNNQNWGSQPIAQQPLQGGDHSGNYGYKSENQEFYQDTFGQQWK
Fold change (+UV/-UV): 200

B7: NONO_HUMAN (protein, UniProt Q15233 1-471, looked up)
Non-POU domain-containing …: MQSNKTFNLEKQNHTPRKHHQHHHQQQHHQQQQQQPPPPPIPANGQQASSQNEGLTIDLKNFRKPGEKTFTQRSRLFVGNLPPDITEEEMRKLFEKYGKAGEVFIHKDKGFGFIRLETRTLAEIAKVELDNMPLRGKQLRVRFACHSASLTVRNLPQYVSNELLEEAFSVFGQVERAVVIVDDRGRPSGKGIVEFSGKPAARKALDRCSEGSFLLTTFPRPVTVEPMDQLDDEEGLPEKLVIKNQQFHKEREQPPRFAQPGSFEYEYAMRWKALIEMEKQQQDQVDRNIKEAREKLEMEMEAARHEHQVMLMRQDLMRRQEELRRMEELHNQEVQKRKQLELRQEEERRRREEEMRRQQEEMMRRQQEGFKGTFPDAREQEIRMGQMAMGGAMGINNRGAMPPAPVPAGTPAPPGPATMMPDGTLGLTPPTTERFGQAATMEGIGAIGGTPPAFNRAAPGAEFAPNKRRRY
Fold change (+UV/-UV): 1.778

B8: K1H1_HUMAN (protein, UniProt Q15323 1-416, looked up)
Keratin, type I cuticular Ha1: MPYNFCLPSLSCRTSCSSRPCVPPSCHSCTLPGACNIPANVSNCNWFCEGSFNGSEKETMQFLNDRLASYLEKVRQLERDNAELENLIRERSQQQEPLLCPSYQSYFKTIEELQQKILCTKSENARLVVQIDNAKLAADDFRTKYQTELSLRQLVESDINGLRRILDELTLCKSDLEAQVESLKEELLCLKSNHEQEVNTLRCQLGDRLNVEVDAAPTVDLNRVLNETRSQYEALVETNRREVEQWFTTQTEELNKQVVSSSEQLQSYQAEIIELRRTVNALEIELQAQHNLRDSLENTLTESEARYSSQLSQVQSLITNVESQLAEIRSDLERQNQEYQVLLDVRARLECEINTYRSLLESEDCNLPSNPCATTNACSKPIGPCLSNPCTSCVPPAPCTPCAPRPRCGPCNSFVR
Fold change (+UV/-UV): 800

B9: HNRPL_HUMAN (protein, UniProt P14866 1-589, looked up)
Heterogeneous nuclear …: MSRRLLPRAEKRRRRLEQRQQPDEQRRRSGAMVKMAAAGGGGGGGRYYGGGSEGGRAPKRLKTDNAGDQHGGGGGGGGGAGAAGGGGGGENYDDPHKTPASPVVHIRGLIDGVVEADLVEALQEFGPISYVVVMPKKRQALVEFEDVLGACNAVNYAADNQIYIAGHPAFVNYSTSQKISRPGDSDDSRSVNSVLLFTILNPIYSITTDVLYTICNPCGPVQRIVIFRKNGVQAMVEFDSVQSAQRAKASLNGADIYSGCCTLKIEYAKPTRLNVFKNDQDTWDYTNPNLSGQGDPGSNPNKRQRQPPLLGDHPAEYGGPHGGYHSHYHDEGYGPPPPHYEGRRMGPPVGGHRRGPSRYGPQYGHPPPPPPPPEYGPHADSPVLMVYGLDQSKMNCDRVFNVFCLYGNVEKVKFMKSKPGAAMVEMADGYAVDRAITHLNNNFMFGQKLNVCVSKQPAIMPGQSYGLEDGSCSYKDFSESRNNRFSTPEQAAKNRIQHPSNVLHFFNAPLEVTEENFFEICDELGVKRPSSVKVFSGKSERSSSGLLEWESKSDALETLGFLNHYQMKNPNGPYPYTLKLCFSTAQHAS
Fold change (+UV/-UV): 1.125
